Assay results from US20200317806A1 (Hoffmann-La Roche, published 2020).

Biological target: T1, murine EpCAM recombinant ectodomain (ECD), C-terminally His-Avi tagged (mouse)
T1 construct: also called mu EpCAM; EpCAM ECD
T1 chain: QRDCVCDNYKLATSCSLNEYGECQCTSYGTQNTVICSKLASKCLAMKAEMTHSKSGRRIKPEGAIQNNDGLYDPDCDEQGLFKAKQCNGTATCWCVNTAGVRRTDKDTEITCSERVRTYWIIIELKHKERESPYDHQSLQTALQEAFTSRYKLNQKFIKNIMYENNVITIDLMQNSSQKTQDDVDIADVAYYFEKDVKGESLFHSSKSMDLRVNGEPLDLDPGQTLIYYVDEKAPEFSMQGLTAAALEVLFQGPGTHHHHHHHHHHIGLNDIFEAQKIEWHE
Assay: SPR (Biacore), antibody captured by anti-mouse IgG, EpCAM ECD as analyte, 37 C
Source text: This system is well established for the study of molecule interactions. It allows a continuous real-time monitoring of ligand/analyte bindings and thus the determination of association rate constants (ka), dissociation rate constants (kd), and equilibrium constants (KD) in various assay settings. SPR-technology is based on the measurement of the refractive index close to the surface of a gold coated biosensor chip. Changes in the refractive index indicate mass changes on the surface caused by the interaction of immobilized ligand with analyte injected in solution. If molecules bind to immobilized ligand on the surface the mass increases, in case of dissociation the mass decreases. For capturing, a goat anti-mouse IgG antibody was immobilized on the surface of a CM5 biosensorchip using amine-coupling chemistry according to the manufacturer's instructions. Flow cells were activated with a 1:1 mixture of 0.1 M N-hydroxysuccinimide and 0.4 M 1-ethyl-3-(3-dimethylaminopropyl)-carbodiimide hydrochloride at a flow rate of 5 μl/min at 25° C. Anti-mouse IgG antibody was injected in 10 mM sodium acetate, pH 4.5 at 10 μg/mL. A reference control flow cell was treated in the same way but with vehicle buffers only instead of the capturing antibody. Surfaces were blocked with an injection of 1 M ethanolamine/HCl pH 8.5. […] All interactions were performed at 37° C., using PBS-T as running buffer. The analytes were injected in a series of threefold increasing concentrations (EGFR ECD 4.12-1000 nM and EpCAM ECD 0.91-2000 nM in PBS-T+0.1% BSA) with a flow rate of 50 μl/min, 180 sec association, 1200 sec dissociation. The capture antibody was regenerated after each cycle with 10 mM glycine, pH 2.0 at a flow rate of 30 μl/min for 60 sec. Signals were detected at a rate of one signal per second.

Kd: 61 nM | koff: 0.013 s⁻¹ | kon: 220000 M⁻¹ s⁻¹
B1: G8.8 (mouse EpCAM-specific antibody) (antibody, mouse IgG2a, kappa, V domains shown)
VH: EVQLAESGGGLVQPGRSMKLSCAASGFTFSNFPMAWVRQAPTKGLEWVATISTSGGSTYYRDSVKGRFTISRDNAKSTLYLQMNSLRSEDTATYYCTRTLYILRVFYFDYWGQGVMVTVSS
VL: DIQMTQSPASLSASLGETVSIECLASEGISNDLAWYQQKSGKSPQLLIYATSRLQDGVPSRFSGSGSGTRYSLKISGMQPEDEADYFCQQSYKYPWTFGGGTKLELKR
notes: Full heavy and light chains; also called EpCAM G8.8; anti-EpCAM mono-specific antibody
